# Laboratory results taken from US20160009813A1 (Memorial Sloan Kettering, published 2016).
# T1: human CD19 (human, UniProt P15391 20-556)
# T1 sequence (looked up): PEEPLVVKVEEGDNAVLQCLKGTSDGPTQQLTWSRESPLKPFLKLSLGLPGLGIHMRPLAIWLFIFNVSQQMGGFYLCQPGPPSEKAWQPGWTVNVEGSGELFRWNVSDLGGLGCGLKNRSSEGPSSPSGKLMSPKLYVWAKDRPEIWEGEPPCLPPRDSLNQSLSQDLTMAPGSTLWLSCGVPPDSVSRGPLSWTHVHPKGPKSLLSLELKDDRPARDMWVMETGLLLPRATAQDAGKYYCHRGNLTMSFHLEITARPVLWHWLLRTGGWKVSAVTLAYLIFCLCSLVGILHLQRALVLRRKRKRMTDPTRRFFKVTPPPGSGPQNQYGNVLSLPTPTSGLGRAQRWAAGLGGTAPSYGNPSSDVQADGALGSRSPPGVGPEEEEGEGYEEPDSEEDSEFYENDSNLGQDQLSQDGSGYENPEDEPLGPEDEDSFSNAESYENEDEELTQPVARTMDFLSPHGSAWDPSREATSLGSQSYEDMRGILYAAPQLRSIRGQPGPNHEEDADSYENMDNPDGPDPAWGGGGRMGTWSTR
# Molecular target: T1, human CD19
# Test: cell-based or functional assay
binder,measurement,value
"1928z chimeric antigen receptor (CD19-specific second-generation CAR: SJ25C1-derived scFv, CD28, CD3 zeta) (receptor) EVKLQQSGAELVRPGSSVKISCKASGYAFSSYWMNWVKQRPGQGLEWIGQIYPGDGDTNYNGKFKGQATLTADKSSSTAYMQLSGLTSEDSAVYFCARKTISSVVDFYFDYWGQGTTVTVSSGGGGSGGGGSGGGGSDIELTQSPKFMSTSVGDRVSVTCKASQNVGTNVAWYQQKPGQSPKPLIYSATYRNSGVPDRFTGSGSGTDFTLTITNVQSKDLADYFCQQYNRYPYTSGGGTKLEIKRAAAIEVMYPPPYLDNEKSNGTIIHVKGKHLCPSPLFPGPSKPFWVLVVVGGVLACYSLLVTVAFIIFWVRSKRSRLLHSDYMNMTPRRPGPTRKHYQPYAPPRDFAAYRSRVKFSRSAEPPAYQQGQNQLYNELNLGRREEYDVLDKRRGRDPEMGGKPRRKNPQEGLYNELQKDKMAEAYSEIGMKGERRRGKGHDGLYQGLSTATKDTYDALHMQALPPR",expansion after one stimulation with 3T3-CD19 cells (mean),20 fold
same,expansion after three weekly stimulations with 3T3-CD19 cells,~1000 fold
